How the values were obtained:
EZH2 [1] = biological target: T1, EZH2 (UniProt Q61188 Q61188:1-746); assay: filter; double-filter binding, same buffer with yeast tRNA; extremely low affinity; details: label: radiolabelled (cpm)
EZH2 [2] = biological target: T1, EZH2; assay: FP filter; double-filter binding; 50 mM Tris pH 8.0, 100 mM NaCl, 5 mM MgCl2, 50 ng/ul yeast tRNA, 30 C; details: folded; critical region nt 81-131

T1 sequence (Q61188 whole entry, one chain of several): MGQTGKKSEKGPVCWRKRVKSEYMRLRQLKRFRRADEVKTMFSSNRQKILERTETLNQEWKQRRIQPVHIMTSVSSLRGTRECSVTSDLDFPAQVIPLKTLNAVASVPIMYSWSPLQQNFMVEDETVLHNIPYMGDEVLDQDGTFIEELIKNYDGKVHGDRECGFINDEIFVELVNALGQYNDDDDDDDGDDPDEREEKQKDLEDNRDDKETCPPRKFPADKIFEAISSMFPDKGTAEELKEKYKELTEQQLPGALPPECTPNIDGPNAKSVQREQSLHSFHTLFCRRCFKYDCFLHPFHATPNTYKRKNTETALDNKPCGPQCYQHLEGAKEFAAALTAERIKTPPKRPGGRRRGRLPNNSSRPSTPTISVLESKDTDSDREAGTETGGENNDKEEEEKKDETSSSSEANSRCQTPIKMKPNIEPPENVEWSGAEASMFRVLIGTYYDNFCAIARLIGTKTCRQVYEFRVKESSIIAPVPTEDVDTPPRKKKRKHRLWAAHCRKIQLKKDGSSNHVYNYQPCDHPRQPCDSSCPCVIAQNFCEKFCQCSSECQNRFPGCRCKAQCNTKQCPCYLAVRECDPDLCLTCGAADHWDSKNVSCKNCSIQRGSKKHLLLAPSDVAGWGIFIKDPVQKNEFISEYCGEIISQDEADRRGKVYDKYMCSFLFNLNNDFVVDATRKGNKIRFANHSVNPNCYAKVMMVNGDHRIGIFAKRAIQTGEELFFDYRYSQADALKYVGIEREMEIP

B1: B2 RNA domain I+II (ssRNA)
RNA: GGGGCUGGUGAGAUGGCUCAGUGGGUAAGAGCACCCGACUGCUCUUCCGAAGGUCCGGAGUUCAAAUCCCAGCAACCACAUGGUGGCUCACAACCAUCCGUAACG
modifications: [none]
With B1 the Kd (EZH2 [1]) was over 3000 nM.

B2: B2 RNA domain III (ssRNA)
RNA: CGUAACGAGAUCUGACUCCCUCUUCUGGAGUGUCUGAAGACA
modifications: [none]
B2 gave a Kd (EZH2 [1]) of over 3000 nM.

B3: B2 RNA domain I (ssRNA)
RNA: GGGGCUGGUGAGAUGGCUCAGUGGGUAAGAGCACCCGACUGCUCUUCCGAAGGUCCGGAGUUCAAAUCCCAG
modifications: [none]
B3 was tested, and the Kd (EZH2 [1]) was over 3000 nM.

B4: B2 RNA full length (ssRNA)
RNA: GGGGCUGGUGAGAUGGCUCAGUGGGUAAGAGCACCCGACUGCUCUUCCGAAGGUCCGGAGUUCAAAUCCCAGCAACCACAUGGUGGCUCACAACCAUCCGUAACGAGAUCUGACUCCCUCUUCUGGAGUGUCUGAAGACAGCUACAGUGUACUUACAUAUAAUAAAUAAAUAAAUCUUUAAAAAAAAA
B4 gave a Kd (EZH2 [2]) of 423 nM.
